# From patent publication EP4722245A1, “ANTIBODY TARGETING ITGA2, ANTIBODY DRUG CONJUGATE THEREOF, AND USE” (Foreseen Technology (Beijing) Co., Ltd., priority 2023, dated 2024)
# Positions count from the first letter of the chain named.
# T1: ITGA2-His (UniProt P17301 30-1132, limits assumed)
# T1 construct: Coated on the ELISA plate at 2 ug/mL; whole entry P17301 is named; also called ITGA2 protein; not shown: His tag
# T1 sequence (looked up): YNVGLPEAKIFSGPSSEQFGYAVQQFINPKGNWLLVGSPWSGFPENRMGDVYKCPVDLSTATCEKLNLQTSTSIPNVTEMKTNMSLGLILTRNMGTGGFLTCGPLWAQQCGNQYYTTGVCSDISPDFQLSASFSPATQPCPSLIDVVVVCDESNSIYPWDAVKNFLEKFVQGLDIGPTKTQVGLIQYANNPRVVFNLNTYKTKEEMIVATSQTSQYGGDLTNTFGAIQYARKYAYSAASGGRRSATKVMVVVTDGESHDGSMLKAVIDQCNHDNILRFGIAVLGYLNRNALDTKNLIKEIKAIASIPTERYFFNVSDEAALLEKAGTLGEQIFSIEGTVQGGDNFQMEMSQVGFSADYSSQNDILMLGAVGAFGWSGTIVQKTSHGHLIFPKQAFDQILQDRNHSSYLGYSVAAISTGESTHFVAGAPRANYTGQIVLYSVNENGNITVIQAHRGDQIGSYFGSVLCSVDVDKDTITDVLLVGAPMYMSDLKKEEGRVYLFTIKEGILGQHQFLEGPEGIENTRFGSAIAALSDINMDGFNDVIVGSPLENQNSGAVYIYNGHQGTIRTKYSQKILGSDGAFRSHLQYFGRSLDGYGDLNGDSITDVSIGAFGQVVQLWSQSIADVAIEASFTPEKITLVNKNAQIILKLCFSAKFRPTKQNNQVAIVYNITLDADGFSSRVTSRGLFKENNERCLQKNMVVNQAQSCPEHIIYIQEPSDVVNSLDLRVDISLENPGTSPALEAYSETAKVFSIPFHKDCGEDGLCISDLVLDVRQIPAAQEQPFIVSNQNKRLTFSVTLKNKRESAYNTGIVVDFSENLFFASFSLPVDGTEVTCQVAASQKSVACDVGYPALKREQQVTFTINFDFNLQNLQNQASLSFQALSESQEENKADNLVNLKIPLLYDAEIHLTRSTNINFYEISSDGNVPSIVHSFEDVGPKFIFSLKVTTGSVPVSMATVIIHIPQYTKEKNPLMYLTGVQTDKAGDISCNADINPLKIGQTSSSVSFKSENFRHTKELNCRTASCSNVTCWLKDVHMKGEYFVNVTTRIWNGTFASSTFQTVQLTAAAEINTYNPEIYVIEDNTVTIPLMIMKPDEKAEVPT
# T2: ITGA2 protein on the surface of human tumor cells (human, UniProt P17301 30-1181)
# T2 construct: whole, on cells; Endogenously expressed; the cell line is named under assay or readout; also called Integrin alpha-2; ITGA2-positive HuCCT1 cells
# T2 sequence (looked up): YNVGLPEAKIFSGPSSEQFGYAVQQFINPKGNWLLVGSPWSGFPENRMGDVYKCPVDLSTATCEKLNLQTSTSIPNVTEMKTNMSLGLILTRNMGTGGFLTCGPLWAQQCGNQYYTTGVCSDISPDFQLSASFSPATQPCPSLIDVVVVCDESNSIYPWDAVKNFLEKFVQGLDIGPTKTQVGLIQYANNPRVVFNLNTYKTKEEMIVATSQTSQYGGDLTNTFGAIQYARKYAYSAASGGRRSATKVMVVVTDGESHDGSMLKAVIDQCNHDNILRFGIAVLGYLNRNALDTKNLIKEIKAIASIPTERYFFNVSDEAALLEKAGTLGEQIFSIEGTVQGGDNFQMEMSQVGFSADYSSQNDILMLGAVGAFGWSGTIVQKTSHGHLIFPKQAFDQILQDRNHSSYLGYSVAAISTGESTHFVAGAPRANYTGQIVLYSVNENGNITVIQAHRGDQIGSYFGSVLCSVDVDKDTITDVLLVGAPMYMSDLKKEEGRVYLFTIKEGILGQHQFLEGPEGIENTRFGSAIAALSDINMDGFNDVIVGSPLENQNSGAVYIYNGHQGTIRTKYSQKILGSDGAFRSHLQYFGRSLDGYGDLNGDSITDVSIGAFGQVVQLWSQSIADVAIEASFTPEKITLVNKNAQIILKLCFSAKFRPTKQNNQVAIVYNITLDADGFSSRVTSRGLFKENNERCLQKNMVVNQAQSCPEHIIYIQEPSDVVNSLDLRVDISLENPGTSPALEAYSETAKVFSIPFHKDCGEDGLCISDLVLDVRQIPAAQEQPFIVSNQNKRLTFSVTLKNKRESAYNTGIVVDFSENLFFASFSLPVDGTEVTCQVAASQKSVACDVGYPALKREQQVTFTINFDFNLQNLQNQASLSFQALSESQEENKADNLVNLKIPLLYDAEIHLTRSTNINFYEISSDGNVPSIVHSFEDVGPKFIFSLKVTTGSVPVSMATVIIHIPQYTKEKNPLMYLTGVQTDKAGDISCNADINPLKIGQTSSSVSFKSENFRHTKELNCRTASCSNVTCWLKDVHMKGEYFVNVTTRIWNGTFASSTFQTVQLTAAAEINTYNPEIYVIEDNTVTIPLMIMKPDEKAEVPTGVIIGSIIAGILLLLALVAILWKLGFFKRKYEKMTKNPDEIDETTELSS
# B1: Humanized antibody FS002-A153-H5L2 (antibody, human IgG1, kappa, V domains shown)
# VH: QVQLVQSGAEVKKPGASVKVSCKASGYTFTDYEMHWVRQAPGQGLEWMGTIDPETGGTTYAQKFQGRVTMTADTSISTAYMELSRLRSDDTAVYYCARSGYYVSSYESYAMDYWGQGTTVTVSS
# VL: DIVMTQSPDSLAVSLGERVTMNCKSSQSLLNSGNQKNYLTWYQQKPGQPPKLLIYGASTRESGVPDRFSGSGSGTDFTLTISSLQAEDVAVYYCQNDYSYPFTFGGGTKLEIKR
# notes: Humanized IgG1 kappa
# B2: Humanized antibody FS002-A103-H4L3 (antibody, human IgG1, kappa, V domains shown)
# VH: B1 VH with T50V, A61N, M70L, A97S
# VL: EIVMTQSPPTMSMSPGERVTLSCKASENVGTYVSWYQQKPGQAPRLLIYGASTRESGVPARFSGSGSGTDFTLTISSLQPEDFAVYYCQNDYSYPFTFGGGTKLEIKR
# notes: Humanized IgG1 kappa
# B3: Humanized antibody FS002-A226-H4L3 (antibody, human IgG1, kappa, V domains shown)
# VH: B1 VH with M34I, M48I, T50A, T59N, A61N, M70L, A97S, S105N
# VL: DIQITQSPSSMSASVGDRVTITCKASQDIKSYLSWYQQKPGKAPKLLIYDTSNLASGVPSRFSGSGSGTDYTLTISSLQPEDFATYYCQQWSSYPFTFGGGTKLEIKR
# notes: Humanized IgG1 kappa
# B4: Humanized antibody FS002-A208-H4L4 (antibody, human IgG1, kappa, V domains shown)
# VH: B1 VH with M34I, M48I, T50A, T59N, A61N, M70L, A97S, S105N
# VL: DIQMTQSPSSLSASVGDRVTITCRASQNVGTNVAWYQQKPEKAPKSLIYSASYRFSGVPSRFSGSGSGTDFTLTISSLQPEDFATYYCQQYNIYPLSFGGGTKLELKR
# notes: Humanized IgG1 kappa
# B5: Humanized antibody FS002-A153-H5L5 (antibody, human IgG1, kappa, V domains shown)
# VH: B1 VH
# VL: EIVMTQSPPTLSLSPGERVTMSCRSSQSLLNSGNQKNYLTWYQQKPGQAPRLLIYGASTRESGVPARFSGSGSGTDFTLTISSLQPEDFAVYYCQNDYSYPFTFGGGTKLEIKR
# notes: Humanized IgG1 kappa
# B6: Humanized antibody FS002-A153-H5L4 (antibody, human IgG1, kappa, V domains shown)
# VH: B1 VH
# VL: B5 VL with E1D, L13V, R24K, A66D
# notes: Humanized IgG1 kappa
# B7: Humanized antibody FS002-A226-H5L4 (antibody, human IgG1, kappa, V domains shown)
# VH: B1 VH with M34I, T50A, T59N, A97S, S105N
# VL: B3 VL with I4L, M11L, K24R, Y71F
# notes: Humanized IgG1 kappa
# B8: Humanized antibody FS002-A153-H5L1 (antibody, human IgG1, kappa, V domains shown)
# VH: B1 VH
# VL: B1 VL with N22S, S69T
# notes: Humanized IgG1 kappa
# B9: Humanized antibody FS002-A208-H3L4 (antibody, human IgG1, kappa, V domains shown)
# VH: QVQLVQSGAEVKKPGASVKVSCKASGYTFTDYEIHWVRQAPGQGLEWIGAIDPETGGTNYNQKFNDRVTLTADKSISTAYMELSRLRSDDTAVYYCSRSGYYVSNYESYAMDYWGQGTTVTVSS
# VL: B4 VL
# notes: Humanized IgG1 kappa
# B10: Humanized antibody FS002-A226-H3L4 (antibody, human IgG1, kappa, V domains shown)
# VH: B9 VH with V2L, K74T
# VL: B3 VL with I4L, M11L, K24R, Y71F
# notes: Humanized IgG1 kappa
# B11: Humanized antibody FS002-A103-H4L2 (antibody, human IgG1, kappa, V domains shown)
# VH: B1 VH with T50V, A61N, M70L, A97S
# VL: B2 VL with P9K, A60D
# notes: Humanized IgG1 kappa
# B12: Humanized antibody FS002-A153-H3L3 (antibody, human IgG1, kappa, V domains shown)
# VH: B1 VH with V20L, M48I, A61N, M70L, A97S
# VL: B1 VL with V19A, M21I
# notes: Humanized IgG1 kappa
# B13: Humanized antibody FS002-A208-H5L4 (antibody, human IgG1, kappa, V domains shown)
# VH: B1 VH with M34I, T50A, T59N, A97S, S105N
# VL: B4 VL
# notes: Humanized IgG1 kappa
# B14: Humanized antibody FS002-A226-H5L3 (antibody, human IgG1, kappa, V domains shown)
# VH: B1 VH with M34I, T50A, T59N, A97S, S105N
# VL: B3 VL
# notes: Humanized IgG1 kappa
# B15: Humanized antibody FS002-A153-H4L2 (antibody, human IgG1, kappa, V domains shown)
# VH: B1 VH with M70L, A97S
# VL: B1 VL
# notes: Humanized IgG1 kappa
# B16: Chimeric mouse antibody FS002-A103 (antibody, human IgG1, kappa, V domains shown)
# VH: QVQLQQSGAELVRPGASVTLSCKASGYTFTDYEMHWVKQTPVHGLEWIGVIDPETGGTTYNQKFNDKATLTADKSSSTAYMDLRSLTSEDSAVYYCSRSGYYVSSYESYAMDYWGQGTSVTVSS
# VL: DIVMTQSPKSMSMSVGERVTLSCKASENVGTYVSWYQQKPEQSPKLLIYGASTRESGVPDRFTGSGSGTDFTLTISSVQAEDLAVYYCQNDYSYPFTFGSGTKLEIKR
# notes: Chimeric; expressed in ExpiCHO-S
# B17: Chimeric mouse antibody FS002-A226 (antibody, human IgG1, kappa, V domains shown)
# VH: B16 VH with V2L, M34I, V50A, T59N, S105N
# VL: DIKITQSPSSMYASLGERVTITCKASQDIKSYLSWYQQKPGSSPRLLIYDTSNLASGVPVRFSGRGSGTSYSLTISRMEAEDAATYYCQQWSSYPFTFGSGTKLEIKR
# notes: Chimeric
# B18: Chimeric mouse antibody FS002-A208 (antibody, human IgG1, kappa, V domains shown)
# VH: B16 VH with M34I, V50A, T59N, S105N
# VL: DIVMTQSQKFMSTSVGDRVSVTCKASQNVGTNVAWYQQKPGQSPKTLIYSASYRFSGVPDRFTGSGSGTDFTLTINNVQSEDLADYFCQQYNIYPLSFGAGTKLELKR
# notes: Chimeric
# B19: Chimeric mouse antibody FS002-A153 (antibody, human IgG1, kappa, V domains shown)
# VH: B16 VH with V50T
# VL: B1 VL with D9S, A12T, S14T, L15A, R18K, N22S, S69T, L84V, V89L, G106S
# notes: Chimeric
# B20: Vatelizumab (antibody, V domains shown)
# VH: QVQLQESGPGLVKPSETLSLTCTVSGFSLTNYGIHWIRQPPGKGLEWLGVIWARGFTNYNSALMSRLTISKDNSKNQVSLKLSSVTAADTAVYYCARANDGVYYAMDYWGQGTLVTVSS
# VL: DFVMTQSPAFLSVTPGEKVTITCSAQSSVNYIHWYQQKPDQAPKKLIYDTSKLASGVPSRFSGSGSGTDYTFTISSLEAEDAATYYCQQWTTNPLTFGQGTKVEIK
# Target: T1, ITGA2-His
# Assay: ELISA, plate coated with 2 ug/mL ITGA2-His, anti-human IgG-Fc-HRP detection
row,EC50,Binder
1,0.009 nM,B1
2,0.006 nM,B2
3,0.024 nM,B3
4,0.017 nM,B4
5,0.022 nM,B5
6,0.024 nM,B6
7,0.022 nM,B7
8,0.027 nM,B8
9,0.022 nM,B9
10,0.023 nM,B10
11,0.006 nM,B11
12,0.014 nM,B12
13,0.018 nM,B13
14,0.023 nM,B14
15,0.011 nM,B15
16,0.017 nM,B16
17,0.018 nM,B17
18,0.02 nM,B18
19,0.008 nM,B19
20,0.008 nM,B20

# Target: T2, ITGA2 protein on the surface of human …
# Assay: flow cytometry on HuCCT1 cells
row,EC50,Binder
1,0.22 nM,B1
2,0.08 nM,B2
3,0.533 nM,B3
4,0.6 nM,B4
5,0.48 nM,B5
6,0.487 nM,B6
7,0.647 nM,B7
8,0.58 nM,B8
9,0.587 nM,B9
10,0.28 nM,B10
11,0.127 nM,B11
12,0.42 nM,B12
13,0.627 nM,B13
14,0.58 nM,B14
15,0.313 nM,B15
16,0.633 nM,B16
17,0.58 nM,B17
18,0.76 nM,B18
19,0.333 nM,B19
20,0.78 nM,B20
